According to patent US11795454B2, “Targeted delivery system” (Cedars-Sinai Medical Center, priority 2009, dated 2023):
Entries after “also recorded” stand apart in the source; their conditions may differ.

B1: HerDox: self-assembled nanoparticle of oligonucleotide duplex, doxorubicin and HerPBK10 (conjugate)
chain: LPPRLKEMKSQESAAGSKLVLRCETSSEYSSLRFKWFKNGNELNRKNKPQNIKIQKKPGKSELRINKASLADSGEYMCKVISKLGNDSASANITIVESNEIITGMPASTEGAYVSSESPIRISVSTEGANTSSSTSTSTTGTSHLVKCAEKEKTFCVNGGECFMVKDLSNPSRYLCKCQPGFTGARCTENVPMKVQNQEKAEELYMRRAAMYEEGPPPSYESVVSAAPVAAALGSPFDAPLDPPFVPPRYLRPTGGRNSIRYSELAPLFDTTRVYLVDNKSTDVASLNYQNDHSNFLTTVIQNNDYSPGEASTQTINLDDRSHWGGDLKTILHTNMPNVNEFMFTNKFKARVMVSRLPTKDNQVELKYEWVEFTLPEGNYSETMTIDLMNNAIVEHYLKVGRQNGVLESDIGVKFDTRNFRLGFDPVTGLVMPGVYTNEAFHPDIILLPGCGVDFTHSRLSNLLGIRKRQPFQEGFRITYDDLEGGNIPALLDVDAYQASLKDDTEQGGGGAGGSNSSGSGAEENSNAAAAAMQPVEDMNDHAIRGDTFATRAEEKRAEAEAAAEAAAPAAQPEVEKPQKKPVIKPLTEDSKKRSYNLISNDSTFTQYRSWYLAYNYGDPQTGIRSWTLLCTPDVTCGSEQVYWSLPDMMQDPVTFRSTRQISNFPVVGAELLPVHSKSFYNDQAVYSQLIRQFTSLTHVFNRFPENQILARPPAPTITTVSENVPALTDHGTLPLRNSIGGVQRVTITDARRRTCPYVYKALGIVSPRVLSSRTFKKKKKKKKKK

Key:
MDA-MB-231 (HER2−) cells = test: HerDox targeted toxicity in vitro, separate cultures; format: cell-based, human; conditions: MDA-MB-231, day 3
Method: (§1) All treatments, N=3. FIG. 27A. Comparing cytotoxicity to HER2+ (MDAMB-435) and HER2− (MDA-MB-231) cells in separate cultures. Left, Relative survival (as % of untreated cells) on day 3 of treatment. Right, Micrograph of live cells after treatment. Control, mock (HBS) treatment. FIG. 27B, Receptor specificity of cytotoxicity. […] FIG. 27C, Toxicity to cells displaying differential HER2. Cytotoxicities from HerDox titrations were assessed on each cell line by metabolic assay and confirmed by crystal violet stain on day 3 of treatment. CD50 values (shown in log scale) were determined by non-linear regression analyses of HerDox killing curves using GraphPad Prism. The relative HER2 level of each cell line is shown next to each CD50 value. FIG. 27D, Targeting in a mixed MDA-MB-435(HER2+,GFP−)/MDA-MB-231(HER2−,GFP+) cell culture. Survival was determined by calculating the relative doubling time (DT) of experimental (exp) cells normalized by mock-treated (con) cells based on crystal violet stains (total cells) and GFP fluorescence (MDAMB-231 cells), and applying DTMDA-MB-435=DTTotal-DTMDA-MB-231 as previously described. Relative survival is shown for Day 2 of treatment. FIG. 27E, Targeted glioma cell death in vitro. U251 cells were treated once with the indicated HerDox (and competitive inhibitor where indicated) or Dox doses and measured for cell survival at the indicated time points after treatment. * P<0.05 compared to Mock.
For all in vitro treatments, cell lines were grown for ˜36 h after plating (104/well in 96-well dishes) to allow receptor re-expression, followed by media replacement with new media containing indicated constructs in reduced volume at the indicated final molarities for 4 h with rocking, followed by supplementation with additional media and continued growth for the indicated time periods. Except for the experiments performed on the U251 glioma cells (which received a one-time treatment), cells received these treatments daily while separate sets of wells were assessed for cell death by either metabolic assay (CellTiter Promega Corporation, Madison, WI, USA) or crystal violet stain each day. Where indicated, cells received competitive inhibitor (eHRG) at 10× molar excess for 30 min-1 h at 4° C. before treatment. Treatment of mixed (HER2+/HER2−) cell cultures with HerDox or Dox (0.5 uM), and cell surface receptor subunit level determination were performed as previously described.

[1] = tested on: MDA-MB-435, MDAMB-453, HeLa; test: HerDox cytotoxicity dose curves (metabolic assay, crystal violet); format: cell-based, human; conditions: intermediate HER2 levels; day 3; read-out: CD50 (the source's name)
Method: FIG. 21 depicts, in accordance with an embodiment herein, toxicity to cells displaying differential HER2. Cytotoxicities from a range of HerDox doses were assessed on each cell line by metabolic assay and confirmed by crystal violet stain. CD50 values (shown in log scale) were determined by non-linear regression analyses of HerDox dose curves using a scientific graphing program (GraphPad Prism) and confirmed with an on-line calculator (Chang bioscience). The relative HER2 level of each cell line is shown next to each CD50 value.
as §1, with “FIG. 27D, Targeting in a mixed MDA-MB-435(HER2+,GFP−)/MDA-MB-231(HER2−,GFP+) cell culture.” left out, “Relative survival is shown for Day 2 of treatment. FIG. 27E, Targeted glioma cell death in vitro.” left out, “Mock. […]” for “Mock.”
To assess the contribution of HER2 to therapeutic efficacy in vitro, we determined HerDox CD50 on selected human tumor lines displaying HER2 at relatively high (SKBR3), moderate (MDA-MB-435, MDAMB-453, HeLa), and low to undetectable (MDA-MB-231) levels, according to our receptor subunit profiling of a cell line panel.

[2] = Stability in complete cell culture media; format: in vitro ADME; conditions: up to 24 h
Method: (§2) FIG. 34A, HerDox stability in different storage conditions. HerDox was incubated at indicated times and temperatures was applied to a 10K mwco ultrafiltration membrane every other day, and retentate and filtrate A480 measured to determine relative Dox retention or release from complexes, respectively. […] FIG. 34B, Assessing stability in serum-containing media by ultrafiltration. HerDox immobilized on Ni-NTA beads (Qiagen Inc., Valencia. CA, USA) by incubation on ice for 2 h with agitation followed by free HerDox removal via bead pelleting/washing in HBS received 10% fetal bovine serum (FBS), to mimic cell culture conditions, and incubated at 37° C. with agitation for the indicated time-points. At each time-point, samples were pelleted and mean A480±SD (N=3) of supernatants (Released) and bead eluates (Retained) were measured. […] Relative Dox release or retention in serum is expressed as normalized to control (corresponding serum-lacking sample). […] Dox fluorescence (top panel) was visualized by UV excitation. […] Dox (1.6 nmoles) was added to serum coated wells and incubated for 30 min at 37° C. with agitation before supernatants were removed and the wells washed once with HBS before fluorescence spectra were measured for pre-incubation sample (Input), supernatant (Free) and wells (Serum-bound). Fluorescence spectra were obtained at Ex 485 nm/Em 520-750 nm with a 515 nm cutoff filter.

[3] = Cardiac function (echocardiography) and myocardial histology of treated mice
Text: Histology of myocardia from treated mice. Micrographs show representative H&E stained specimens from treated mice.
Female immunodeficient (nu/nu) mice (6-8 weeks; Charles River Laboratories International, Wilmington, MA, USA) received subcutaneous bilateral flank injections of 1×10^7 indicated cells and monitored until tumors reached ˜200-300 mm3, at which point the following treatments were initiated. […] To assess therapeutic efficacy, a new group of tumor-bearing mice received daily i.v. (tail vein) injections of HerDox or Dox at indicated doses for 7 days followed by continued monitoring of tumor volumes (assessed by measuring tumor length and width using calipers, and applying LxW2), animal weights, and heart function. […] Cardiac function in anesthetized mice was evaluated by a Vevo 770 High-Frequency Ultrasound system (VisualSonics, Toronto, Canada). Heart rate and body temperature were monitored. Superficial hair was removed from the region of interest with a depilatory cream (Nair) before imaging. The 2-dimensional guided M-mode images of the left ventricle were obtained in the short-axis view at the papillary level with the mouse in the supine position. All primary measurements were traced manually and digitized by goal-directed software installed within the echocardiograph. Three beats were averaged for each measurement. All measurements were done from leading edge to leading edge according to the American Society of Echocardiography guidelines. At animal study completion, tissue harvested from euthanized mice were fixed in 4% paraformaldehyde/PBS at 4° C. for 24 h followed by transfer into 20% sucrose/PBS and storage at −80° C. before immunohistochemical processing. Specimens and hematoxylin/eosin staining were prepared by AML Laboratories, Inc., Baltimore, MD, USA.

[4] = HerDox stability in storage, ultrafiltration; format: physicochemical; conditions: 4° C., RT, or 37° C. over a 12 day period
Method: as §2, with “filter. […]” for “filter.”

Molecule | toxicity / survival (MDA-MB-231 (HER2−) cells) | IC50 [1] [nM] | loss of Dox in complete cell culture media [2] | myocardial histology ([3]; H&E) | stroke volume, cardiac output, left ventricular internal dimension and volume ([3]; echocardiography 25 days following injections, 0.004 mg/kg) | Dox release in storage [4]
COc1cccc2c1C(=O)c1c(O)c3c(c(O)c1C2=O)C[C@@](O)(C(=O)CO)C[C@@H]3O[C@H]1C[C@H](N)[C@H](O)[C@H](C)O1.Cl [Dox, Doxorubicin-HCl, reference compound] | no preference | – | – | – | – | –
B1 | – | 300 to 800 | no loss of Dox from the complex | normal cardiac morphology | no effect on these measurements; also recorded: no cardiac dysfunction or histological damage | no detectable Dox release
